Biological target: T1, NLS-HBD(H1)-eGFP (mouse, UniProt O70338 27-76)
T1 chain: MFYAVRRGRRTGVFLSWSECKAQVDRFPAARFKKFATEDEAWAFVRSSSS
Experiment: EMSA; comparable to unmodified; EMSA: 20 nM hybrid, 125 nM-0.5 uM protein, 20 mM Tris-HCl pH 8.0, 150 mM NaCl, 5 mM MgCl2, 12.5% glycerol, 0.05% Triton X-100, 1 mM DTT, 1 h at 4 C
Conditions: protein: recombinant, tags: N-terminal NLS PKKKRKV, 6xHis-MBP cleaved by AcTEV, label: 5'-Cy5 on RNA, blunt

B1: MSR SR2 RNA:DNA hybrid, m6A (DNA:RNA)
RNA: UUUUCCACCUUUUUCAGUUUUCCUCGCCAUAUUUC
DNA: GAAATATGGCGAGGAAAACTGAAAAAGGTGGAAAA
modifications: m6A at RNA positions 7, 16, 29, 31
Question: Does B1 bind?
Answer: binds
